From article PMC3392929

Target: Purified β-actin (Cytoskeleton) (UniProt P60709)
Assay: SPR

With “GST-tagged Myo1c neck plus tail (domain or fragment)” the Kd was < 2 µM.
